# Positions count from the first letter of the chain named.
# B1: FL-26 scFv (scFv)
# scFv: QVTLKESGPVLVKPTETLTLTCTVSGFSFRNARMGVSWIRQPPGKALEWLAHIFSNDEKSYSTSLKSRLTISKDTSKSQVVLTLTNMDPVDTATYFCARMPEYSSGWSGAFDIWGQGTMVTVSSGGGGSGGGGSGGGGSDIQMTQSPSSLSASVGDRVTITCRASQGIRNDLVWYQQKPGKAPKRLIYGTSTLQSGVPSRFSGSGSGTEFTLTISSLQPEDFATYYCLQHNSYPLTFGGGTKVEIK
# notes: periplasmic prep
# B2: FL-10 scFv (scFv)
# scFv: B1 scFv with G167D, N170D, V173G, K181N, T190A, E244D
# notes: periplasmic prep
# B3: FL-22 scFv (scFv)
# scFv: B1 scFv with R169S, D171Y, V173A, G189A, T190A, S232T, L235W, G239Q
# notes: periplasmic prep
# B4: FL-23 scFv (scFv)
# scFv: QVTLKESGPALVKPTETLTLTCTVSGFSFRNARMGVSWIRQPPGKALEWLAHIFSNDEKSYSTSLKSRLTISKDTSKSQVVLTLTNMDPVDTATYFCARMPEYSSGWSGAFDIWGQGTMVTVSSGGGGSGGGGSGGGGSDIQMTQSPSSLSASVGDRVTITCRASQDIGYDLGWYQQKPGKAPKRLIYAASTLQSGVPSRFSGSGSGTEFTLIISSLQPEDFATYYCLQHNSFPWTFGQGTKVEIK
# notes: periplasmic prep
# B5: FL-24 scFv (scFv)
# scFv: B4 scFv with F29L, A32V, T83I, G169R, Y170D, G173V, I213T, N231H, F233Y
# notes: periplasmic prep
# B6: FL-25 scFv (scFv)
# scFv: B4 scFv with G169R, Y170D, S202T, S204G, I213T, W235F, Q239G
# notes: periplasmic prep
# B7: FL-27 scFv (scFv)
# scFv: B1 scFv with A164T, G189A, T190A, Y226F, N231Y
# notes: periplasmic prep
# B8: FL-28 scFv (scFv)
# scFv: B1 scFv with R169G, N170D, V173G, K178I, G189A, T192V
# notes: periplasmic prep
# B9: FL-36 scFv (scFv)
# scFv: B1 scFv with V10T, V24F, F29L, N31Y, G167D, V173A, G189A, T190A, T192S, V243L
# notes: periplasmic prep
# B10: FL-37 scFv (scFv)
# scFv: QVTLKESGPVLVKPTETLTLTCTVSGFSLRNIKMGVSWIRQPPGKALEWLAHIFSNDEKSYSTSLKSRLTISKDTSKSQVVLTLTNMDPVDTATYFCARMPEYSSGWSGAFDIWGQGTMVTVSSGGGGSGGGGSGGGGSDIQMTQSPSSLSASVGDRVTITCRASQDISNYLAWYQQKPGKAPKRLIYAASSLQSGVPSRFSGSGSGTEFTLTISSLQPEDFATYYCLQHNSFPLTFGGGTKLEIK
# notes: periplasmic prep
# B11: FL-38 scFv (scFv)
# scFv: B1 scFv with M119L, V173G, G189A, T190A, T192S, V243L
# notes: periplasmic prep
# B12: FL-43 scFv (scFv)
# scFv: B1 scFv with A46C, G239C
# notes: periplasmic prep
# B13: FL-44 scFv (scFv)
# scFv: B1 scFv with A46C, A164T, G189A, T190A, Y226F, N231Y, G239C
# notes: periplasmic prep
# B14: FL-52 scFv (scFv)
# scFv: B10 scFv with V10T, V24F, N31Y, I32A, K33R, A46C, S169R, Y171D, F233Y, G239C
# notes: periplasmic prep
# B15: FL-59 scFv (scFv)
# scFv: B1 scFv with V10M, F29L, A32V, G167D, N170D, V173G, K181N, T190A, K242R, V243L
# notes: periplasmic prep
# B16: FL-14 scFv (scFv)
# scFv: QVTLKESGPALVKPTETLTLTCTLSGFSLNNARMAVSWIRQPPGKTLEWLAHIFSNDEKSYSTSLKSRLTISKDTSKGQVVLTMTNMDPVDTATYYCARIVGYGSGWYGYFDYWGQGTLVTVSSGGGGSGGGGSGGGGSDIQMTQSPSSLSASVGDRVTITCRASQDIRNDLGWYQQKPGKAPKRLIYAASTLQSGVPSRFSGSGSGTEFTLTISSLQPEDFATYYCLQHNSYPLTFGGGTKVEIK
# notes: periplasmic prep
# B17: FL-4 scFv (scFv)
# scFv: B16 scFv with R33K, A35G, T46A, N170D, K181N, A189G, E244D
# notes: periplasmic prep
# B18: FL-6 scFv (scFv)
# scFv: QVTLKESGPTLVKPTETLTLTCTLSGFSLNNARMAVSWIRQPPGKTLEWLAHIFSNDEKSYSPSLKSRLTISKDTSKSQVVLTMTNMDPEDTATYYCARIVGYGTGWYGFFDYWGQGILVTVSSGGGGSGGGGSGGGGSDIQMTQSPSSLSASVGDRVTITCRASQGIRNDLGWFQQKPGKAPKRLIYAASVLQSGVPSRFSGSGSGTEFTLTISSLQPEDFATYYCLQHNSYPLTFGGGTKVDIK
# notes: periplasmic prep
# B19: FL-11 scFv (scFv)
# scFv: B16 scFv with A10V, R33K, A35G, T46A, H52Q, D57G, A98S, D167G, A189G
# notes: periplasmic prep
# B20: FL-12 scFv (scFv)
# scFv: QVTLKESGPALVKPTETLTLTCTVSGFSLSNARMGVSWIRQPPGKALEWLANIFSNDEKSYSTSLKSRLTISKGTSKSQVVLTMTNMDPEDTATYYCARIVGYGSGWYGYFDYWGQGTLVTVSSGGGGSGGGGSGGGGSDIQMTQSPSSLSASVGDRVTITCRASQGIRNDLGWYQQKPGKAPQRLIYAASSLQSGVPSRFSGSGSGTEFTLTISSLQPEDFATYYCLQHNSYPLTFGGGTKVEIK
# notes: periplasmic prep
# B21: FL-13 scFv (scFv)
# scFv: B16 scFv with A10T, A35G, T46A, S67N, T75S, G78T, M87V, Y110F, D167G
# notes: periplasmic prep
# Target: T1, human FLT3 (human, UniProt P36888 27-993)
# T1 construct: On transfected CHO cells, or on the FLT3 positive human AML cell lines EOL-1 / MV4-11 where the row says so; also called hu FLT3; full length human FLT3
# Test: FACS, scFv on CHO-human FLT3 pre-incubated with FLT3 ligand (competitor)
# Method: The detection was performed using mouse anti-FLAG+PE-conjugated goat anti-mouse and the Fluorescence median detected by FACS (median (+ligand)/median (w/o ligand)*100%)
# Afterwards cells were not washed but directly stained with FLT3 binder (scFv's). […] As negative control, cells were incubated with an unspecific scFv instead of FLT3 scFv.
# For the evaluation of the data, the fluorescence median was detected by FACS.
row,Binder,median [+ligand]/median [w/o ligand]*100
1,B1,≥ 75%
2,B2,≥ 75%
3,B3,≥ 75%
4,B4,≥ 75%
5,B5,≥ 75%
6,B6,≥ 75%
7,B7,≥ 75%
8,B8,≥ 75%
9,B9,≥ 75%
10,B10,≥ 75%
11,B11,≥ 75%
12,B12,≥ 75%
13,B13,≥ 75%
14,B14,≥ 75%
15,B15,≥ 75%
16,B16,≥ 75%
17,B17,≥ 75%
18,B18,≥ 75%
19,B19,≥ 75%
20,B20,≥ 75%
21,B21,≥ 75%

# — patent publication US20170037149A1 (Amgen, published 2017)
